Test in all cases: SPR; BIAcore 2000. Aaa, N-Aaa and C-Aaa amine-coupled at low density to a C1 chip (149, 96 and 72 pg/mm^2, nearly equimolar). Fg, Fn or Vn injected as analytes at 50 µl/min, 25°C. KD from the kinetics of the initial phases (binding biphasic at higher concentrations).
(In general: In SPR one partner is held on a chip, and binding of the other changes the refractive index at the surface.)

Test [1] has as its target autolysin/adhesin Aaa from Staphylococcus aureus (6 x His-Aaa) (Staphylococcus aureus) (UniProt Q2G0U9).
In test [2] the target is N-terminal LysM domain of Aaa (6 x His-N-Aaa) (Staphylococcus aureus 4074).
N-terminal LysM domain of Aaa (6 x His-N-Aaa) (Staphylococcus aureus 4074), sequence (P0C1U7 26-214 limits assumed): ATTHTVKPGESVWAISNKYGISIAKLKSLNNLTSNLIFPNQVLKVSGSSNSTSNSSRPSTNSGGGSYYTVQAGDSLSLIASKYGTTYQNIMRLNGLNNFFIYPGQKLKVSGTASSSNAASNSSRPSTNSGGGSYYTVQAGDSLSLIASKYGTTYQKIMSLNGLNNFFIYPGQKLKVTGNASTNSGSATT
In test [3] the target is C-terminal CHAP domain of Aaa (6 x His-C-Aaa) (Staphylococcus aureus 4074).
C-terminal CHAP domain of Aaa (6 x His-C-Aaa) (Staphylococcus aureus 4074), sequence (P0C1U7 215-334 limits assumed): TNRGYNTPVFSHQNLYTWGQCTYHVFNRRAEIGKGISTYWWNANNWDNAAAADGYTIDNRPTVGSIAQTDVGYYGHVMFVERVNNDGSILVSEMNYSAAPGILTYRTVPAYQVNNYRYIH

For the substance “fibrinogen (from UniProt P02671 36-866; P02675 45-491; P02679 27-453) (complex)”, the figures for the Kd in test [1], in test [2] and in test [3] were 0.76 nM, 0.41 nM and 0.74 nM, respectively. The relative stoichiometry of binding (Aaa : N-Aaa : C-Aaa) in test [1] stood at 4; in test [2] it was 2; in test [3], 1.

For “fibronectin (from UniProt P02751 32-2477) (natural protein)”, the dissociation constant (Kd) in test [1] was found to be 6 nM; in test [2], 5.1 nM; in test [3], 6.8 nM. Further, the values for the relative stoichiometry of binding (Aaa : N-Aaa : C-Aaa) in test [1], in test [2] and in test [3] were 2, 1 and 1, respectively.

Consider vitronectin (natural protein), for which the Kd was 18 nM in test [1], 18 nM in test [2] and 20 nM in test [3]. The relative stoichiometry of binding (Aaa : N-Aaa : C-Aaa) in test [1] was found to be 2; in test [2], 1; in test [3] it was 1.

The Kd is the equilibrium constant for the complex coming apart. The low end stands for tighter binding, the high end for weaker binding.

(Values after PMC3386970.)
